Results: patent US20230235013A1 (MABSOLVE, published 2023)
Where a chain is given by its changes, count along the chain named. In names and notes the source's numbering stands.

T1: human FcγRIIA (R131, Sino Biological Cat. No. 10374-H08H) (human, UniProt P12318 34-218)
T1 construct: bought; also called human FcγRIIa R131 allele; FcγRII allele R131
T1 sequence (looked up): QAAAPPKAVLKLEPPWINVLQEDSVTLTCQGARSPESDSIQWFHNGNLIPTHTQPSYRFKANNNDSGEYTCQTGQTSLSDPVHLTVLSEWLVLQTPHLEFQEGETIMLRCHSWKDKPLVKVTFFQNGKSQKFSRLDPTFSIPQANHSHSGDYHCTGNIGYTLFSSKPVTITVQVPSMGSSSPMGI

B1: anti-CD20 human IgG1 L234Q/L235S/G236R (antibody)
heavy: QVQLQQPGAELVKPGASVKMSCKASGYTFTSYNMHWVKQTPGRGLEWIGAIYPGNGDTSYNQKFKGKATLTADKSSSTAYMQLSSLTSEDSAVYYCARSTYYGGDWYFNVWGAGTTVTVSSASTKGPSVFPLAPSSKSTSGGTAALGCLVKDYFPEPVTVSWNSGALTSGVHTFPAVLQSSGLYSLSSVVTVPSSSLGTQTYICNVNHKPSNTKVDKKVEPKSCDKTHTCPPCPAPEQSRGPSVFLFPPKPKDTLMISRTPEVTCVVVDVSHEDPEVKFNWYVDGVEVHNAKTKPREEQYNSTYRVVSVLTVLHQDWLNGKEYKCKVSNKALPAPIEKTISKAKGQPREPQVYTLPPSRDELTKNQVSLTCLVKGFYPSDIAVEWESNGQPENNYKTTPPVLDSDGSFFLYSKLTVDKSRWQQGNVFSCSVMHEALHNHYTQKSLSLSPGK
light: QIVLSQSPAILSASPGEKVTMTCRASSSVSYIHWFQQKPGSSPKPWIYATSNLASGVPVRFSGSGSGTSYSLTISRVEAEDAATYYCQQWTSNPPTFGGGTKLEIKRTVAAPSVFIFPPSDEQLKSGTASVVCLLNNFYPREAKVQWKVDNALQSGNSQESVTEQDSKDSTYSLSSTLTLSKADYEKHKVYACEVTHQGLSSPVTKSFNRGEC
notes: also called 10.77; copies: 2 + 2
B2: anti-CD20 human IgG2 L234Q/L235S (antibody)
heavy: QVQLQQPGAELVKPGASVKMSCKASGYTFTSYNMHWVKQTPGRGLEWIGAIYPGNGDTSYNQKFKGKATLTADKSSSTAYMQLSSLTSEDSAVYYCARSTYYGGDWYFNVWGAGTTVTVSSASTKGPSVFPLAPCSRSTSESTAALGCLVKDYFPEPVTVSWNSGALTSGVHTFPAVLQSSGLYSLSSVVTVPSSNFGTQTYTCNVDHKPSNTKVDKTVERKCCVECPPCPAPPQSGPSVFLFPPKPKDTLMISRTPEVTCVVVDVSHEDPEVQFNWYVDGVEVHNAKTKPREEQFNSTFRVVSVLTVVHQDWLNGKEYKCKVSNKGLPAPIEKTISKTKGQPREPQVYTLPPSREEMTKNQVSLTCLVKGFYPSDIAVEWESNGQPENNYKTTPPMLDSDGSFFLYSKLTVDKSRWQQGNVFSCSVMHEALHNHYTQKSLSLSPGK
light: B1 light
notes: also called 11.144; copies: 2 + 2
B3: anti-CD20 human IgG4 L234Q/L235S/G236R (with S228P) (antibody)
heavy: QVQLQQPGAELVKPGASVKMSCKASGYTFTSYNMHWVKQTPGRGLEWIGAIYPGNGDTSYNQKFKGKATLTADKSSSTAYMQLSSLTSEDSAVYYCARSTYYGGDWYFNVWGAGTTVTVSSASTKGPSVFPLAPCSRSTSESTAALGCLVKDYFPEPVTVSWNSGALTSGVHTFPAVLQSSGLYSLSSVVTVPSSSLGTKTYTCNVDHKPSNTKVDKRVESKYGPPCPPCPAPEQSRGPSVFLFPPKPKDTLMISRTPEVTCVVVDVSQEDPEVQFNWYVDGVEVHNAKTKPREEQFNSTYRVVSVLTVLHQDWLNGKEYKCKVSNKGLPSSIEKTISKAKGQPREPQVYTLPPSQEEMTKNQVSLTCLVKGFYPSDIAVEWESNGQPENNYKTTPPVLDSDGSFFLYSRLTVDKSRWQEGNVFSCSVMHEALHNHYTQKSLSLSLGK
light: B1 light
notes: copies: 2 + 2
B4: anti-CD20 human IgG1 L234T/L235K/G236R (antibody)
heavy: B1 heavy with Q238T, S239K
light: B1 light
notes: also called 2-58
B5: anti-CD20 human IgG1 L234T/L235S/G236R (antibody)
heavy: B1 heavy with Q238T
light: B1 light
notes: also called 2-62
B6: anti-CD20 human IgG1 L234T/L235R/G236R (antibody)
heavy: B1 heavy with Q238T, S239R
light: B1 light
notes: also called 2-61
B7: anti-CD20 human IgG1 L234Q/L235S/G236R/T250Q/M428L (antibody)
heavy: B1 heavy with T254Q, M432L
light: B1 light
notes: also called 10.146; copies: 2 + 2
B8: anti-CD20 human IgG1 L234S/L235V/G236R (antibody)
heavy: B1 heavy with Q238S, S239V
light: B1 light
notes: also called 2-53; copies: 2 + 2
B9: anti-CD20 human IgG1 L234R/L235H/G236R (antibody)
heavy: B1 heavy with Q238R, S239H
light: B1 light
notes: also called 2-38
B10: anti-CD20 human IgG1 L234Q/L235S/G236R/M252Y/S254T/T256E (antibody)
heavy: B1 heavy with M256Y, S258T, T260E
light: B1 light
notes: also called 10.145; copies: 2 + 2
B11: anti-CD20 human IgG1 L234R/L235E/G236R (antibody)
heavy: B1 heavy with Q238R, S239E
light: B1 light
notes: also called 2-37
B12: anti-CD20 human IgG1 L234S/L235H/G236R (antibody)
heavy: B1 heavy with Q238S, S239H
light: B1 light
notes: also called 2-48
B13: anti-CD20 human IgG1 L234A/L235A/P329G (LALAPG reference) (antibody)
heavy: not shown
light: B1 light
notes: also called 2-66; copies: 2 + 2
B14: anti-CD20 human IgG1 L234T/L235Q/G236R (antibody)
heavy: B1 heavy with Q238T, S239Q
light: B1 light
notes: also called 2-60
B15: anti-CD20 mouse IgG2a L234Q/L235S/G236R (antibody)
heavy: QVQLQQPGAELVKPGASVKMSCKASGYTFTSYNMHWVKQTPGRGLEWIGAIYPGNGDTSYNQKFKGKATLTADKSSSTAYMQLSSLTSEDSAVYYCARSTYYGGDWYFNVWGAGTTVTVSSAKTTAPSVYPLAPVCGDTTGSSVTLGCLVKGYFPEPVTLTWNSGSLSSGVHTFPAVLQSDLYTLSSSVTVTSSTWPSQSITCNVAHPASSTKVDKKIEPRGPTIKPCPPCKCPAPNQSRGPSVFIFPPKIKDVLMISLSPIVTCVVVDVSEDDPDVQISWFVNNVEVHTAQTQTHREDYNSTLRVVSALPIQHQDWMSGKEFKCKVNNKDLPAPIERTISKPKGSVRAPQVYVLPPPEEEMTKKQVTLTCMVTDFMPEDIYVEWTNNGKTELNYKNTEPVLDSDGSYFMYSKLRVEKKNWVERNSYSCSVVHEGLHNHHTTKSFSRTPGK
light: QIVLSQSPAILSASPGEKVTMTCRASSSVSYIHWFQQKPGSSPKPWIYATSNLASGVPVRFSGSGSGTSYSLTISRVEAEDAATYYCQQWTSNPPTFGGGTKLEIKRADAAPTVSIFPPSSEQLTSGGASVVCFLNNFYPKDINVKWKIDGSERQNGVLNSWTDQDSKDSTYSMSSTLTLTKDEYERHNSYTCEATHKTSTSPIVKSFNRNEC
notes: copies: 2 + 2

Columns and labels:
[1] = target: T2, human FcγRIIIB (NA2 allotype, Sino Biological Cat. No. 11046-H08H) (human, UniProt O75015 17-200); experiment: SPR, captured His-receptor
T2 construct: bought; also called human FcγRIIIb NA2 allele

[2] = target: T1, human FcγRIIA (R131, Sino Biological …); experiment: SPR, captured His-receptor
[3] = target: T3, Histidine-tagged recombinant human FcγRI (CD64) (human, UniProt P12314 16-288); experiment: SPR, culture supernatant, captured His-FcγRI;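 also: biacore T200 SPR at 25 °C, anti-His capture, supernatants of HEK293 cells expressing IgG1 Fc variants injected 1 min, reference-subtracted response read 55 s after injection start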
T3 construct: bought; also called Sino Biological Cat. No. 12056-H08H

[4] = target: T3, Histidine-tagged recombinant human …; experiment: SPR, captured His-receptor
[5] = target: T4, Histidine-tagged recombinant human FcγRI (CD64) (human, UniProt P12314 16-288, limits assumed); experiment: SPR, His-FcγRI captured; Expt 1;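 also: SPR at 25 °C on anti-His antibody chip capturing FcγRI, Fc-variant antibodies injected at 100 µg/mL for 1 min, signal near end of injection minus buffer blank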
T4 construct: bought

[6] = target: T4, Histidine-tagged recombinant human …; experiment: SPR, His-FcγRI captured; mean;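 also: biacore T200 SPR at 25 °C, anti-His surface capturing FcγRI, Fc-variant antibodies injected at 100 µg/mL for 1 min, signal near injection end minus third buffer blank, three repeats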
[7] = target: T4, Histidine-tagged recombinant human …; experiment: SPR, His-FcγRI captured; Expt 3;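 also: biacore T200 SPR at 25 °C, Fc-variant antibodies at 100 µg/mL flowed 1 min over anti-His-captured FcγRI, signal taken just before injection end minus a buffer blank cycle; antibody analyte injected at 100 µg/mL for 1 min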
[8] = target: T4, Histidine-tagged recombinant human …; experiment: SPR, His-FcγRI captured; Expt 2;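 also: biacore T200 SPR at 25 °C, Fc-variant antibodies at 100 µg/mL flowed 1 min over anti-His-captured receptor, signal read near injection end minus third buffer blank; antibody analyte injected at 100 µg/mL for 1 min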
human FcγRIIIA (F158) = target: T5, human FcγRIIIA (F158) (human, UniProt P08637 17-208); experiment: SPR, FcγRIIIA captured; also: test concentration or dose not given here
T5 construct: bought; F158 allele
T5 sequence (P08637 17-208 limits assumed): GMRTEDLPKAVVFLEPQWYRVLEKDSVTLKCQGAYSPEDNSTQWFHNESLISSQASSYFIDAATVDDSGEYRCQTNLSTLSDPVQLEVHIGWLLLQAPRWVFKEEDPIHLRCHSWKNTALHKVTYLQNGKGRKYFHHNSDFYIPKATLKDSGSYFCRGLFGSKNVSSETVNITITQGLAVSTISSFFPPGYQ

binding result [1] | binding result [2] | Mean binding response [3] [RU] | binding result [4] | Corrected response (RU) [5] [RU] | Corrected response (RU), Mean [6] [RU] | Corrected response (RU) [7] [RU] | Corrected response (RU) [8] [RU] | Corrected response (RU) (human FcγRIIIA (F158)) | Binder
no binding (tested: 100 µg/mL) | no binding (tested: 100 µg/mL) | 11.9 |  |  |  |  |  |  | B1
no binding (tested: 100 µg/mL) | no binding (tested: 100 µg/mL) |  | binds |  |  |  |  |  | B2
no binding (tested: 100 µg/mL) | no binding (tested: 100 µg/mL) |  | no binding (tested: 100 µg/mL) |  |  |  |  |  | B3
 |  |  |  | 1.1 | 2.7 | 4.5 | 2.4 | 3.5 | B4
 |  |  |  | 0.8 | 1.4 | 2.5 | 0.9 | 2.5 | B5
 |  |  |  | 0.2 | 1.8 | 3.5 | 1.6 | 3.8 | B6
no binding (tested: 100 µg/mL) | no binding (tested: 100 µg/mL) |  | no binding (tested: 100 µg/mL) |  |  |  |  |  | B7
no binding (tested: 100 µg/mL) | no binding (tested: 100 µg/mL) |  | no binding (tested: 100 µg/mL) |  |  |  |  |  | B8
 |  |  |  | -1.2 | 0.6 | 2.3 | 0.7 | 3.9 | B9
no binding (tested: 100 µg/mL) | no binding (tested: 100 µg/mL) |  | no binding (tested: 100 µg/mL) |  |  |  |  |  | B10
 |  |  |  | 0.9 | 2.4 | 4.6 | 1.8 | 4.6 | B11
 |  |  |  | 0.4 | 1.8 | 3.9 | 1.1 | 3.7 | B12
no binding (tested: 100 µg/mL) | no binding (tested: 100 µg/mL) |  |  |  |  |  |  |  | B13
 |  |  |  | 2.2 | 3 | 4.5 | 2.3 | 3 | B14
no binding (tested: 100 µg/mL) | no binding (tested: 100 µg/mL) |  | no binding (tested: 100 µg/mL) |  |  |  |  |  | B15
